Paper doi:10.1101/2021.03.11.435010 (bioRxiv, 2021)

B1: MED18 (natural protein)
chain: MEAPPVTMMPVTGGTINMMEYLLQGSVLDHSLESLIHRLRGLCDNMEPETFLDHEMVFLLKGQQASPFVLRARRSMDRAGAPWHLRYLGQPEMGDKNRHALVRNCVDIATSENLTDFLMEMGFRMDHEFVAKGHLFRKGIMKIMVYKIFRILVPGNTDSTEALSLSYLVELSVVAPAGQDMVSDDMKNFAEQLKPLVHLEKIDPKRLM
B2: MED11 (natural protein)
chain: MATYSLANERLRALEDIEREIGAILQNAGTVILELSKEKTNERLLDRQAAAFTASVQHVEAELSAQIRYLTQVATGQPHEGSSYSSRKDCQMALKRVDYARLKLSDVARTCEQMLEN
B3: MED31 (natural protein)
chain: MAAAVAMETDDAGNRLRFQLELEFVQCLANPNYLNFLAQRGYFKDKAFVNYLKYLLYWKDPEYAKYLKYPQCLHMLELLQYEHFRKELVNAQCAKFIDEQQILHWQHYSRKRMRLQQALAEQQQQNNTSGK
B4: MED20 (natural protein)
chain: MGVTCVSQMPVAEGKSVQQTVELLTRKLEMLGAEKQGTFCVDCETYHTAASTLGSQGQTGKLMYVMHNSEYPLSCFALFENGPCLIADTNFDVLMVKLKGFFQSAKASKIETRGTRYQYCDFLVKVGTVTMGPSARGISVEVEYGPCVVASDCWSLLLEFLQSFLGSHTPGAPAVFGNRHDAVYGPADTMVQYMELFNKIRKQQQVPVAGIR
B5: MED6 (natural protein)
chain: MAAVDIRDNLLGISWVDSSWIPILNSGSVLDYFSERSNPFYDRTCNNEVVKMQRLTLEHLNQMVGIEYILLHAQEPILFIIRKQQRQSPAQVIPLADYYIIAGVIYQAPDLGSVINSRVLTAVHGIQSAFDEAMSYCRYHPSKGYWWHFKDHEEQDKVRPKAKRKEEPSSIFQRQRVDALLLDLRQKFPPKFVQLKPGEKPVPVDQTKKEAEPIPETVKPEEKETTKNVQQTVSAKGPPEKRMRLQ
B6: MED27 (natural protein)
chain: MADVINVSVNLEAFSQAISAIQALRSSVSRVFDCLKDGMRNKETLEGREKAFIAHFQDNLHSVNRDLNELERLSNLVGKPSENHPLHNSGLLSLDPVQDKTPLYSQLLQAYKWSNKLQYHAGLASGLLNQQSLKRSANQMGVSAKRRPKAQPTTLVLPPQYVDDVISRIDRMFPEMSIHLSRPNGTSAMLLVTLGKVLKVIVVMRSLFIDRTIVKGYNENVYTEDGKLDIWSKSNYQVFQKVTDHATTALLHYQLPQMPDVVVRSFMTWLRSYIKLFQAPCQRCGKFLQDGLPPTWRDFRTLEAFHDTCRQ
B7: MED28 (natural protein)
chain: MAAPLGGMFSGQPPGPPQAPPGLPGQASLLQAAPGAPRPSSSTLVDELESSFEACFASLVSQDYVNGTDQEEIRTGVDQCIQKFLDIARQTECFFLQKRLQLSVQKPEQVIKEDVSELRNELQRKDALVQKHLTKLRHWQQVLEDINVQHKKPADIPQGSLAYLEQASANIPAPLKPT

What was measured:
Experiment in all cases: cryo-EM structure
TFIIB = target: T1, TFIIB (human, UniProt Q00403 1-316)
T1 sequence: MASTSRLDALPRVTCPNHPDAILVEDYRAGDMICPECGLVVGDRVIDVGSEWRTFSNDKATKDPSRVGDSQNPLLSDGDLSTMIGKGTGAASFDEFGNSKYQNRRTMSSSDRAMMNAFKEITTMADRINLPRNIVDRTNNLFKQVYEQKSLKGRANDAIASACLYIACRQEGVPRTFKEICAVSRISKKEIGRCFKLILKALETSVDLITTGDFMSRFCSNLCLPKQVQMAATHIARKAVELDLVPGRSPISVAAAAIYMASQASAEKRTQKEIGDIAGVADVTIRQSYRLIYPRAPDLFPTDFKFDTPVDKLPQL

MED8 = target: T2, MED8 (human, UniProt Q96G25 1-268)
T2 sequence: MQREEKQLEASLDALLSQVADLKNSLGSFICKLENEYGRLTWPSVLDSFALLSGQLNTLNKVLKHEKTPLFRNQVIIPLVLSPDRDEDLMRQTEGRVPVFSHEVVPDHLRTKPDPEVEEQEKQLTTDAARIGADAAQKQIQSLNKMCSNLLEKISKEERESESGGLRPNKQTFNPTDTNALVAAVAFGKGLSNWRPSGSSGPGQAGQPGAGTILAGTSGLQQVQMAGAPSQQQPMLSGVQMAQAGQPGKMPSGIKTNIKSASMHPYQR

MED20 = target: B4
MED28 = target: B7
MED30 = target: T3, MED30 (human, UniProt Q96HR3 1-178)
T3 sequence: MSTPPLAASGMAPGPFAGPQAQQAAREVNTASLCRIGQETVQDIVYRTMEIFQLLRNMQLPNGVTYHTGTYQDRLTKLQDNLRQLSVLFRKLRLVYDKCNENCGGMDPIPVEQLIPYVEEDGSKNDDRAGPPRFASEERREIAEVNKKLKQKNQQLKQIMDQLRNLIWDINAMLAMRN

MED14 = MED14 (human, UniProt O60244 1-1454)
MED4 = target: T4, MED4 (human, UniProt Q9NPJ6 1-270)
T4 sequence: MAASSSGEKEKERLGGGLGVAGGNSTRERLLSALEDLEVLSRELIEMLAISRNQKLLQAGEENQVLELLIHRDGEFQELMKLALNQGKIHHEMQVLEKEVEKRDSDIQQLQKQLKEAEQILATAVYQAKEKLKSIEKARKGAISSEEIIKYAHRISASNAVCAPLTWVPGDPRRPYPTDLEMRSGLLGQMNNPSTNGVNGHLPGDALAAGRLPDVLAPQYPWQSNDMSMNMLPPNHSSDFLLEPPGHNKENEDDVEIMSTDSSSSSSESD

MED7 = target: T5, MED7 (human, UniProt O43513 1-233)
T5 sequence: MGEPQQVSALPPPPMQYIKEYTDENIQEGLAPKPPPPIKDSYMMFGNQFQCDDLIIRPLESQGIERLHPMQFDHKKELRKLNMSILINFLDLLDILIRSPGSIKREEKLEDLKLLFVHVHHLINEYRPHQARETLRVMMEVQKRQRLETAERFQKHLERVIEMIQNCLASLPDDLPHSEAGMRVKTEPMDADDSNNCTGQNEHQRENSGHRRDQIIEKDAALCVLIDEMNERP

MED27 = target: B6
MED17 = target: T6, MED17 (human, UniProt Q9NVC6 1-651)
T6 sequence: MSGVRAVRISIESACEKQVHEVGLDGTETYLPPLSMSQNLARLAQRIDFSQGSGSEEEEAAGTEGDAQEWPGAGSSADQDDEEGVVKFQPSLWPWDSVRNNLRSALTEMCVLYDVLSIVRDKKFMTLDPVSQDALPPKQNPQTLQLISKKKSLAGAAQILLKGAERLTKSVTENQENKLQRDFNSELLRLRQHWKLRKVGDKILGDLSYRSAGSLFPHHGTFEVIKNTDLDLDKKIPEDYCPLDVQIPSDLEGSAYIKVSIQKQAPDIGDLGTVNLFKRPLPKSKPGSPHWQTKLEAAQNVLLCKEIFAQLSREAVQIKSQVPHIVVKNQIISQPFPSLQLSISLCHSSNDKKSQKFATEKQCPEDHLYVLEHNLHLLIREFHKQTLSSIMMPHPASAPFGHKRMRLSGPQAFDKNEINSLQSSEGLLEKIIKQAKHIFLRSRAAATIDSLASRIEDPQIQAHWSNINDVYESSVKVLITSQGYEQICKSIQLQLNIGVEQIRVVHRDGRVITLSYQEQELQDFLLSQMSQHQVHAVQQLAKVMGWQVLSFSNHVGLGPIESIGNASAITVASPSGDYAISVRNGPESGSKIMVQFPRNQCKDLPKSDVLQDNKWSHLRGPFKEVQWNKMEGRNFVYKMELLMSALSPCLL

Chain of MED14 (O60244 whole entry): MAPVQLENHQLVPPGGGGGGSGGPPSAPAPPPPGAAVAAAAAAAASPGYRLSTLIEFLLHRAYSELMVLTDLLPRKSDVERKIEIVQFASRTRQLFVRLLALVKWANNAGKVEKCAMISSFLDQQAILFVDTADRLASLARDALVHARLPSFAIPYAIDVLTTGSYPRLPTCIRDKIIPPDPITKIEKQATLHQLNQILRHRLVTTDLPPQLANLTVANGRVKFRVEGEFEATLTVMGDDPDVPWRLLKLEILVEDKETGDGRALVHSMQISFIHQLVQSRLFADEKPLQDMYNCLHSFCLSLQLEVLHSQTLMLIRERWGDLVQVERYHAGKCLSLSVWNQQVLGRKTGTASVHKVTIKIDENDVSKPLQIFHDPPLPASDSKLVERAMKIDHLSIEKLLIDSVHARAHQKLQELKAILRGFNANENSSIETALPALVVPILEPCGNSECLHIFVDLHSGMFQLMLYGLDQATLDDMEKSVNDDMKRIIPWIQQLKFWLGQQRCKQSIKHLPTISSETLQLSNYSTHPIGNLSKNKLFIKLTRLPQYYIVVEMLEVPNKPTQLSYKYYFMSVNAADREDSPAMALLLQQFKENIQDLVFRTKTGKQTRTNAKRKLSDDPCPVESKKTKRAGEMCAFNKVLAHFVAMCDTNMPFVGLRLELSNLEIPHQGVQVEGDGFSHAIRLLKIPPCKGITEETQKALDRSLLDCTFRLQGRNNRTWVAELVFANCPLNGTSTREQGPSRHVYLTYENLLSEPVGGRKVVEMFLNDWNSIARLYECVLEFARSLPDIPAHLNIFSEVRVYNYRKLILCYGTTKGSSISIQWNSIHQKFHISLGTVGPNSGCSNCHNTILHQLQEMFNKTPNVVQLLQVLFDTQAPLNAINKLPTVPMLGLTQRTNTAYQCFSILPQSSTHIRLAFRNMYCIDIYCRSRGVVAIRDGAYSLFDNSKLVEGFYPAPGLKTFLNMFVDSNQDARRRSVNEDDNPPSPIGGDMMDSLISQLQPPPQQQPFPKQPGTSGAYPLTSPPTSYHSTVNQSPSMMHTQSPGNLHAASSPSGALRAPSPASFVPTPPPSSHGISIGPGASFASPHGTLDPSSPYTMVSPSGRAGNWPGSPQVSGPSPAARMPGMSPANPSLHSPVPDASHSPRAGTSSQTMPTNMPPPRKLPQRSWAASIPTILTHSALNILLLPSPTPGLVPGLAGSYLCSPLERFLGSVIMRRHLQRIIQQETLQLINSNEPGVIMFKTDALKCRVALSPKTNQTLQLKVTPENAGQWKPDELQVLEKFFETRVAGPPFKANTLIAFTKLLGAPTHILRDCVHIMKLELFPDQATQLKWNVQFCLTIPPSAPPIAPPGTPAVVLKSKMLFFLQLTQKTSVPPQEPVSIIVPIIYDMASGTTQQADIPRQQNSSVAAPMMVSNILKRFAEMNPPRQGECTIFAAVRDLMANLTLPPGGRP

B1: binds (TFIIB); binds (MED8); binds (MED20).

B2: binds (MED28); binds (MED30).

B3: binds (MED14); binds (MED4); binds (MED7).

B4: binds (MED27); binds (MED8).

B5: binds (MED8).

B6: binds (MED14); binds (MED17).

B7: binds (MED30).
